Results from patent publication US20240398973A1, “ENGINEERED ANTIBODY COMPOUNDS AND CONJUGATES THEREOF” (Eli Lilly and Company, priority 2017, published 2024).
Where two headings read alike, the source gives them in different places. Blank lines part the entries; values can stand above or below the substance they belong to.

Tests used:
[1] = test system: human primary PMNs; experiment: PMN reactive oxygen species (ROS) production, luminol-amplified chemiluminescence; type: cell-based; settings: relative to 1000 nM fMLF
Procedure: Production of ROS by human primary PMNs is measured using luminol-amplified chemiluminescence. Following isolation, PMNs are suspended at 1×10^6 cells/ml in HBSS containing calcium and magnesium (Gibco #14025-092) supplemented with 0.25% human serum albumin (Gemini Bio producst #800-124) and 50 uM Luminol (SigmaAldrich #123072-2.5G). 100 μl of cell suspension (1×10^5 total cells) is then distributed into each well of a 96-well plate suitable for fluorescence measurement (Greiner #655098) and temperature equilibrated to 37° C. for 5 minutes. Following equilibration, 10× solution of antibody conjugate is applied to the wells, achieving a 1× final concentration.
Immediately after the addition of antibody conjugate, chemiluminescence signal is recorded in a luminometer maintained at 37° C. with 0.01 seconds dwell time per well, 20 seconds total time between sequential plate readings and 45 minutes total run time (PerkinElmer EnVision Multilabel Plate Reader).

[2] = test system: primary human polymorphonuclear neutrophil (PMN); experiment: PMN chemotaxis (transwell, modified Boyden chamber); type: cell-based
Procedure: Chemotaxis is measured by observing primary human polymorphonuclear neutrophil (PMN) migration across transwell membranes (Corning #3415) towards antibody conjugates in a modified Boyden chamber assay. Approximately 2-4×10^5 cells from neutrophil-enriched preparations are seeded in upper transwell chambers on membranes with 3.0 um pores. The lower transwell chambers contain solutions of buffer alone and fMLF (N-formyl-Met-Leu-Phe peptide as positive control) and experimental antibody bioconjugates. […] Cell numbers are determined using standard curves. All data are transformed to percent relative to the maximal fMLF response for each individual experiment.

[3] = molecular target: formyl peptide receptor 1 (FPR1) on primary human polymorphonuclear neutrophils (human) (UniProt P21462); experiment: cell-based or functional assay
[4] = molecular target: formyl peptide receptor 1 (FPR1) on primary human polymorphonuclear neutrophils (human) (UniProt P21462); experiment: cell-based or functional assay; remark: listed apart in the source

PMN ROS production at 1 nM (percent relative to 1000 nM fMLF) [3]: 1.2%
PMN ROS production at 3 nM (percent relative to 1000 nM fMLF) [3]: 6.1%
PMN ROS production at 12 nM (percent relative to 1000 nM fMLF) [3]: 17.8%
PMN ROS production at 30 nM (percent relative to 1000 nM fMLF) [3]: 38.4%
PMN ROS production at 100 nM (percent relative to 1000 nM fMLF) [3]: 52.7%
PMN ROS production at 300 nM (percent relative to 1000 nM fMLF) [3]: 54.2%
PMN ROS production at 1000 nM (percent relative to 1000 nM fMLF) [3]: 42.3%
Substance: Emibetuzumab-G4(PAA)-fMLFK-HC-124C-162C-378C (antibody)

PMN ROS production at 1 nM (percent relative to 1000 nM fMLF) [3]: 0.9%
PMN ROS production at 3 nM (percent relative to 1000 nM fMLF) [3]: 1.8%
PMN ROS production at 12 nM (percent relative to 1000 nM fMLF) [3]: 0.9%
PMN ROS production at 30 nM (percent relative to 1000 nM fMLF) [3]: 1.2%
PMN ROS production at 100 nM (percent relative to 1000 nM fMLF) [3]: 1%
PMN ROS production at 300 nM (percent relative to 1000 nM fMLF) [3]: 2.4%
PMN ROS production at 1000 nM (percent relative to 1000 nM fMLF) [3]: 2.8%
PMN ROS production at 1 nM (percent relative to 1000 nM fMLF) [4]: 25.8%
PMN ROS production at 2 nM (percent relative to 1000 nM fMLF) [4]: 27.7%
PMN ROS production at 3.9 nM (percent relative to 1000 nM fMLF) [4]: 28.2%
PMN ROS production at 7.8 nM (percent relative to 1000 nM fMLF) [4]: 27.3%
PMN ROS production at 15.6 nM (percent relative to 1000 nM fMLF) [4]: 29.6%
PMN ROS production at 31.3 nM (percent relative to 1000 nM fMLF) [4]: 24.5%
PMN ROS production at 62.5 nM (percent relative to 1000 nM fMLF) [4]: 23.4%
PMN ROS production at 125 nM (percent relative to 1000 nM fMLF) [4]: 23.5%
PMN ROS production at 250 nM (percent relative to 1000 nM fMLF) [4]: 23.9%
PMN ROS production at 500 nM (percent relative to 1000 nM fMLF) [4]: 38.3%
PMN ROS production at 1000 nM (percent relative to 1000 nM fMLF) [4]: 48.9%
Substance: Emibetuzumab-G4(PAA)-fMLFK-HC-378C (antibody)

Continued, substance first:

Substance: Emibetuzumab-G4(PAA)-UC-HC-124C-378C: unconjugated emibetuzumab IgG4(PAA) with HC 124C and 378C; HC SEQ ID NO:3, LC SEQ ID NO:5
PMN ROS production ([1]; 1 nM, AUC 5 minutes (Table 10)): 25.1 percentage
PMN ROS production ([1]; 1 nM, AUC 5 minutes (Table 17)): 0.5 percentage
PMN ROS production ([1]; 2 nM, AUC 5 minutes (Table 10)): 25.5 percentage
PMN ROS production ([1]; 3 nM, AUC 5 minutes (Table 17)): 0.6 percentage
PMN ROS production ([1]; 3.9 nM, AUC 5 minutes (Table 10)): 25 percentage
PMN ROS production ([1]; 7.8 nM, AUC 5 minutes (Table 10)): 25.6 percentage
PMN ROS production ([1]; 12 nM, AUC 5 minutes (Table 17)): 0.5 percentage
PMN ROS production ([1]; 15.6 nM, AUC 5 minutes (Table 10)): 24.9 percentage
PMN ROS production ([1]; 30 nM, AUC 5 minutes (Table 17)): 0.6 percentage
PMN ROS production ([1]; 31.3 nM, AUC 5 minutes (Table 10)): 25.3 percentage
PMN ROS production ([1]; 62.5 nM, AUC 5 minutes (Table 10)): 24.5 percentage
PMN ROS production ([1]; 100 nM, AUC 5 minutes (Table 17)): 0.5 percentage
PMN ROS production ([1]; 125 nM, AUC 5 minutes (Table 10)): 24.6 percentage
PMN ROS production ([1]; 250 nM, AUC 5 minutes (Table 10)): 24.9 percentage
PMN ROS production ([1]; 300 nM, AUC 5 minutes (Table 17)): 0.7 percentage
PMN ROS production ([1]; 500 nM, AUC 5 minutes (Table 10)): 23 percentage
PMN ROS production ([1]; 1000 nM, AUC 5 minutes (Table 10)): 32.2 percentage
PMN ROS production ([1]; 1000 nM, AUC 5 minutes (Table 17)): 0.5 percentage
Relative Migration (PMN migration towards antibody conjugates) ([2]; 0.78 nM, relative to 3.12 nM fMLF (Table 6)): 5.48%
Relative Migration (PMN migration towards antibody conjugates) ([2]; 1 nM, relative to 30 nM fMLF (Table 7)): 11.30%
Relative Migration (PMN migration towards antibody conjugates) ([2]; 1.56 nM, relative to 3.12 nM fMLF (Table 6)): 8.05%
Relative Migration (PMN migration towards antibody conjugates) ([2]; 3 nM, relative to 30 nM fMLF (Table 7)): 12.40%
Relative Migration (PMN migration towards antibody conjugates) ([2]; 3.12 nM, relative to 3.12 nM fMLF (Table 6)): 7.24%
Relative Migration (PMN migration towards antibody conjugates) ([2]; 6.25 nM, relative to 3.12 nM fMLF (Table 6)): 6.36%
Relative Migration (PMN migration towards antibody conjugates) ([2]; 10 nM, relative to 30 nM fMLF (Table 7)): 12.27%
Relative Migration (PMN migration towards antibody conjugates) ([2]; 12.5 nM, relative to 3.12 nM fMLF (Table 6)): 4.11%
Relative Migration (PMN migration towards antibody conjugates) ([2]; 25 nM, relative to 3.12 nM fMLF (Table 6)): 5.70%
Relative Migration (PMN migration towards antibody conjugates) ([2]; 30 nM, relative to 30 nM fMLF (Table 7)): 14.66%
Relative Migration (PMN migration towards antibody conjugates) ([2]; 50 nM, relative to 3.12 nM fMLF (Table 6)): 12.02%
Relative Migration (PMN migration towards antibody conjugates) ([2]; 100 nM, relative to 3.12 nM fMLF (Table 6)): 6.67%
Relative Migration (PMN migration towards antibody conjugates) ([2]; 100 nM, relative to 30 nM fMLF (Table 7)): 14.89%
Relative Migration (PMN migration towards antibody conjugates) ([2]; 300 nM, relative to 30 nM fMLF (Table 7)): 17.95%
PMN migration (in words) ([2]; relative to conjugated antibodies): did not induce PMN migration

Substance: Emibetuzumab-G4(PAA)-fMLFK-HC-124C-378C (antibody)
PMN ROS production at 1 nM (percent relative to 1000 nM fMLF) [3]: 0.6%
PMN ROS production at 3 nM (percent relative to 1000 nM fMLF) [3]: 0.8%
PMN ROS production at 12 nM (percent relative to 1000 nM fMLF) [3]: 0.9%
PMN ROS production at 30 nM (percent relative to 1000 nM fMLF) [3]: 1.8%
PMN ROS production at 100 nM (percent relative to 1000 nM fMLF) [3]: 3.4%
PMN ROS production at 300 nM (percent relative to 1000 nM fMLF) [3]: 9.1%
PMN ROS production at 1000 nM (percent relative to 1000 nM fMLF) [3]: 25.3%
PMN ROS production at 1 nM (percent relative to 1000 nM fMLF) [4]: 27.4%
PMN ROS production at 2 nM (percent relative to 1000 nM fMLF) [4]: 27.4%
PMN ROS production at 3.9 nM (percent relative to 1000 nM fMLF) [4]: 26.5%
PMN ROS production at 7.8 nM (percent relative to 1000 nM fMLF) [4]: 27.6%
PMN ROS production at 15.6 nM (percent relative to 1000 nM fMLF) [4]: 28.3%
PMN ROS production at 31.3 nM (percent relative to 1000 nM fMLF) [4]: 27.9%
PMN ROS production at 62.5 nM (percent relative to 1000 nM fMLF) [4]: 27.7%
PMN ROS production at 125 nM (percent relative to 1000 nM fMLF) [4]: 24.7%
PMN ROS production at 250 nM (percent relative to 1000 nM fMLF) [4]: 29%
PMN ROS production at 500 nM (percent relative to 1000 nM fMLF) [4]: 53.6%
PMN ROS production at 1000 nM (percent relative to 1000 nM fMLF) [4]: 62.2%

Substance: Emibetuzumab-G4-fMLFK-HC-124C-157C-378C (antibody)
PMN ROS production at 1 nM (percent relative to 1000 nM fMLF) [3]: 1.7%
PMN ROS production at 3 nM (percent relative to 1000 nM fMLF) [3]: 11.9%
PMN ROS production at 12 nM (percent relative to 1000 nM fMLF) [3]: 26.9%
PMN ROS production at 30 nM (percent relative to 1000 nM fMLF) [3]: 50%
PMN ROS production at 100 nM (percent relative to 1000 nM fMLF) [3]: 63.6%
PMN ROS production at 300 nM (percent relative to 1000 nM fMLF) [3]: 58.7%
PMN ROS production at 1000 nM (percent relative to 1000 nM fMLF) [3]: 51.8%
